Laboratory results as given in paper PMC4368675, “A Single parS Sequence from the Cluster of Four Sites Closest to oriC Is Necessary and Sufficient for Proper Chromosome Segregation in Pseudomonas aeruginosa”.

What was measured:
ParB [1] = molecular target: T1, ParB (Pseudomonas aeruginosa, UniProt Q9HT12 1-290); experiment: EMSA; hierarchy: below parS1/4, equal to parS7, parS9; 10 mM Tris-HCl pH 7.5, 0.5 mM DTT, 50 mM KCl, 1 mM MgCl2, 20 ul, 6 pmol labelled DNA, 18 pmol nonspecific competitor (titrations) or 240 pmol ParB plus 18-180 pmol unlabelled parS2 (dissociation), 15 min 37 C; 5% PAGE in 0.5x TBE; details: protein: recombinant; tags: His6 (pET28-derived pKLB28); chain copies: 2; label: 5'-Cy3 on strand 1; 5' overhang 4 nt at both ends
T1 sequence: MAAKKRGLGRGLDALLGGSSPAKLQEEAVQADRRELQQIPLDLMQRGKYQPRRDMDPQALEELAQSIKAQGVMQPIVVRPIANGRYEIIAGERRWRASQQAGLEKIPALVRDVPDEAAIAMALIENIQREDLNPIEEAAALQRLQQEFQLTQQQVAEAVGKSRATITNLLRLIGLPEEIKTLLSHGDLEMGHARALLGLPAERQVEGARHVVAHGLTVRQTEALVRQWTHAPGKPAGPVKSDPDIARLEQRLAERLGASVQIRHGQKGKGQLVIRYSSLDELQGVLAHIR

ParB [2] = molecular target: T1, ParB; experiment: EMSA; hierarchy: below parS10, above parS5; 10 mM Tris-HCl pH 7.5, 0.5 mM DTT, 50 mM KCl, 1 mM MgCl2, 20 ul, 6 pmol labelled DNA, 18 pmol nonspecific competitor (titrations) or 240 pmol ParB plus 18-180 pmol unlabelled parS2 (dissociation), 15 min 37 C; 5% PAGE in 0.5x TBE; details: protein: recombinant; tags: His6 (pET28-derived pKLB28); chain copies: 2; label: 5'-Cy3 on strand 1; 5' overhang 4 nt at both ends
ParB [3] = molecular target: T1, ParB; experiment: EMSA; hierarchy: below parS1/4, equal to parS8, parS9; 10 mM Tris-HCl pH 7.5, 0.5 mM DTT, 50 mM KCl, 1 mM MgCl2, 20 ul, 6 pmol labelled DNA, 18 pmol nonspecific competitor (titrations) or 240 pmol ParB plus 18-180 pmol unlabelled parS2 (dissociation), 15 min 37 C; 5% PAGE in 0.5x TBE; details: protein: recombinant; tags: His6 (pET28-derived pKLB28); chain copies: 2; label: 5'-Cy3 on strand 1; 5' overhang 4 nt at both ends; one mismatch as printed
ParB [4] = molecular target: T1, ParB; experiment: EMSA; hierarchy: below parS1/4, equal to parS7, parS8; 10 mM Tris-HCl pH 7.5, 0.5 mM DTT, 50 mM KCl, 1 mM MgCl2, 20 ul, 6 pmol labelled DNA, 18 pmol nonspecific competitor (titrations) or 240 pmol ParB plus 18-180 pmol unlabelled parS2 (dissociation), 15 min 37 C; 5% PAGE in 0.5x TBE; details: protein: recombinant; tags: His6 (pET28-derived pKLB28); chain copies: 2; label: 5'-Cy3 on strand 1; 5' overhang 4 nt at both ends
ParB [5] = molecular target: T1, ParB; experiment: EMSA; no specific complex; nonspecific smearing at ParB >5 uM; 10 mM Tris-HCl pH 7.5, 0.5 mM DTT, 50 mM KCl, 1 mM MgCl2, 20 ul, 6 pmol labelled DNA, 18 pmol nonspecific competitor (titrations) or 240 pmol ParB plus 18-180 pmol unlabelled parS2 (dissociation), 15 min 37 C; 5% PAGE in 0.5x TBE; details: protein: recombinant; tags: His6 (pET28-derived pKLB28); chain copies: 2; label: 5'-Cy5 on strand 1; blunt
ParB [6] = molecular target: T1, ParB; experiment: EMSA; hierarchy: below parS7-9, above parS6; 10 mM Tris-HCl pH 7.5, 0.5 mM DTT, 50 mM KCl, 1 mM MgCl2, 20 ul, 6 pmol labelled DNA, 18 pmol nonspecific competitor (titrations) or 240 pmol ParB plus 18-180 pmol unlabelled parS2 (dissociation), 15 min 37 C; 5% PAGE in 0.5x TBE; details: protein: recombinant; tags: His6 (pET28-derived pKLB28); chain copies: 2; label: 5'-Cy3 on strand 1; 5' overhang 4 nt at both ends
ParB [7] = molecular target: T1, ParB; experiment: EMSA; highest in affinity hierarchy; 10 mM Tris-HCl pH 7.5, 0.5 mM DTT, 50 mM KCl, 1 mM MgCl2, 20 ul, 6 pmol labelled DNA, 18 pmol nonspecific competitor (titrations) or 240 pmol ParB plus 18-180 pmol unlabelled parS2 (dissociation), 15 min 37 C; 5% PAGE in 0.5x TBE; details: protein: recombinant; tags: His6 (pET28-derived pKLB28); chain copies: 2; label: 5'-Cy3 on strand 1; 5' overhang 4 nt at both ends
ParB [8] = molecular target: T1, ParB; experiment: EMSA; no significant difference from wt parS5; unlabelled parS2 competitor; 10 mM Tris-HCl pH 7.5, 0.5 mM DTT, 50 mM KCl, 1 mM MgCl2, 20 ul, 6 pmol labelled DNA, 18 pmol nonspecific competitor (titrations) or 240 pmol ParB plus 18-180 pmol unlabelled parS2 (dissociation), 15 min 37 C; 5% PAGE in 0.5x TBE; details: protein: recombinant; tags: His6 (pET28-derived pKLB28); chain copies: 2; label: 5'-Cy5 on strand 1; 5' overhang 4 nt at both ends
ParB [9] = molecular target: T1, ParB; experiment: EMSA; lowest of the wt sites in hierarchy; 10 mM Tris-HCl pH 7.5, 0.5 mM DTT, 50 mM KCl, 1 mM MgCl2, 20 ul, 6 pmol labelled DNA, 18 pmol nonspecific competitor (titrations) or 240 pmol ParB plus 18-180 pmol unlabelled parS2 (dissociation), 15 min 37 C; 5% PAGE in 0.5x TBE; details: protein: recombinant; tags: His6 (pET28-derived pKLB28); chain copies: 2; label: 5'-Cy3 on strand 1; 5' overhang 4 nt at both ends
ParB [10] = molecular target: T1, ParB; experiment: EMSA; second in hierarchy; competed by unlabelled parS2; 10 mM Tris-HCl pH 7.5, 0.5 mM DTT, 50 mM KCl, 1 mM MgCl2, 20 ul, 6 pmol labelled DNA, 18 pmol nonspecific competitor (titrations) or 240 pmol ParB plus 18-180 pmol unlabelled parS2 (dissociation), 15 min 37 C; 5% PAGE in 0.5x TBE; details: protein: recombinant; tags: His6 (pET28-derived pKLB28); chain copies: 2; label: 5'-Cy3 on strand 1; 5' overhang 4 nt at both ends

B1: parS8 (dsDNA)
DNA 1: AATTCAAGCTTTGTTCCACGAGGCACAG
DNA 2: TCGACTGTGCCTCGTGGAACAAAGCTTG
binding result (ParB [1]): binds

B2: parS6 (dsDNA)
DNA 1: AATTCAAGCTTCGTTCCACGTGGAAGAG
DNA 2: TCGACTCTTCCACGTGGAACGAAGCTTG
binding result (ParB [2]): binds

B3: parS7 (dsDNA)
DNA 1: AATTCAAGCTTTGTTCCACGAGGAACCG
DNA 2: TCGACCGTTCCTCGTGGAACAAAGCTTG
binding result (ParB [3]): binds

B4: parS9 (dsDNA)
DNA 1: AATTCAAGCTTTGTTCCACGAGGAAGAG
DNA 2: TCGACTCTTCCTCGTGGAACAAAGCTTG
binding result (ParB [4]): binds

B5: nonspecific control (dsDNA)
DNA 1: GATAGCTCTTTGCCATTAAC
DNA 2: GTTAATGGCAAAGAGCTATC
binding result (ParB [5]): no binding

B6: parS10 (dsDNA)
DNA 1: AATTCAAGCTTTGTTCCACAGGGAACAG
DNA 2: TCGACTGTTCCCTGTGGAACAAAGCTTG
binding result (ParB [6]): binds

B7: parS2/parS3 (dsDNA)
DNA 1: AATTCAAGCTTTGTTCCACGTGGAACAG
DNA 2: TCGACTGTTCCACGTGGAACAAAGCTTG
binding result (ParB [7]): binds

B8: parS5* (dsDNA)
DNA 1: AATTCAAGCTTTATTGTATATGGAGCAG
DNA 2: TCGACTGCTCCATATACAATAAAGCTTG
binding result (ParB [8]): binds

B9: parS5 (dsDNA)
DNA 1: AATTCAAGCTTTGTTCTACATGGAACAG
DNA 2: TCGACTGTTCCATGTAGAACAAAGCTTG
binding result (ParB [9]): binds

B10: parS1/parS4 (dsDNA)
DNA 1: AATTCAAGCTTTGTTCCACGTGGAACCG
DNA 2: TCGACGGTTCCACGTGGAACAAAGCTTG
binding result (ParB [10]): binds
